# Test results: patent US6960343B2, “Toll/interleukin-1 receptor adapter protein (TIRAP)” (Yale University School of Medicine, priority 2001, dated 2005)
# What was measured:
# TLR4 = biological target: T1, TLR4 (Homo sapiens, UniProt O00206); assay: Co-immunoprecipitation with Myc-tagged TLR4 in 293T cells; assay type: binding; details: 293T cell lysates, anti-Flag immunoprecipitation
# T1 construct: a Myc-tagged TLR4 deletion construct lacking the ectodomain (Myc TLR4 wt); Myc; expressed in transfected cells; host or cells: 293T cells
# T1 sequence (O00206 653-839 limits assumed): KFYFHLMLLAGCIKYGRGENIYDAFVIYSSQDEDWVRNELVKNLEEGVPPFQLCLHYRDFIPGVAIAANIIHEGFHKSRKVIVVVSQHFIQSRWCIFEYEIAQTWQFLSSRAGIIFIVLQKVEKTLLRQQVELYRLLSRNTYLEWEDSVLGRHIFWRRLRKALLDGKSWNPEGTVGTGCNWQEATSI
# Excerpt: (§1) Cells were transfected in the presence (+) or absence (−) of constructs encoding a wild-type portion of TLR4 (TLR4 wt), a mutant derivative thereof (TLR4 mut), wild-type TIRAP (TIRAP), a mutant TIRAP containing a P125H mutation (TIRAP PH), or wild-type MyD88 (MyD88), wherein each construct further encodes a Myc, Flag, or hemaglutanin (HA) tag, as indicated. Antibodies used for immunoprecipitation (IP) or immunoblot (IB) are indicated to the left of each blot.
# (§2) To obtain biochemical conformation for a role of TIRAP in the TLR4 signaling pathway, TIRAP-TLR4 protein interactions were evaluated using co-immunoprecipitation experiments. 293T cells were co-transfected with 4.5 μg of a Myc-tagged TLR4 deletion construct lacking the ectodomain (Myc TLR4 wt) or its mutant derivative (Myc TLR4 P714H) in the presence or absence of 1.5 μg of Flag-tagged TIRAP (Flag TIRAP) or its mutant derivative containing the P125H mutation (Flag TIRAP PH). […] Immunocomplexes were washed, separated by SDS-PAGE electrophoresis, and then analyzed by immunoblotting with either anti-myc antibody to look for co-immunoprecipitated TLR4 or anti-Flag antibody to confirm immunoprecipitation of Flag TIRAP or Flag TIRAP P125H. Total cell lysates (35 μg/sample) were likewise analyzed by SDS-PAGE and immunoblotting to confirm equivalent expression of the appropriate proteins in every sample. […]
# MyD88 = biological target: T2, MyD88 (Homo sapiens, UniProt Q99836); assay: Co-immunoprecipitation with Flag-tagged MyD88 in 293T cells; assay type: binding; details: 293T cell lysates
# T2 construct: Flag; expressed in transfected cells; host or cells: 293T cells
# Excerpt: as §1
# as §2, with “experiments.” for “experiments. 293T cells were co-transfected with 4.5 μg of a Myc-tagged TLR4 deletion construct lacking the ectodomain (Myc TLR4 wt) or its mutant derivative (Myc TLR4 P714H) in the presence or absence of 1.5 μg of Flag-tagged TIRAP (Flag TIRAP) or its mutant derivative containing the P125H mutation (Flag TIRAP PH).”
# (§3) Similarly, the interaction between TIRAP and MyD88 was examined. […] Direct interactions between TIRAP and the TIR domain of TLR4 was also detected using in vitro glutathione S transferase (GST) pull-down assays.
# IRAK = IRAK (Homo sapiens, UniProt P51617); assay: Association with IRAK; assay type: binding
# TIRAP = biological target: T3, TIRAP (Homo sapiens, UniProt P58753); assay: Co-immunoprecipitation of HA TIRAP with Flag TIRAP (homodimerization); assay type: binding; details: 293T cell lysates
# T3 construct: Flag; expressed in transfected cells; host or cells: 293T cells
# Excerpt: as §1
# as §2, with “experiments.” for “experiments. 293T cells were co-transfected with 4.5 μg of a Myc-tagged TLR4 deletion construct lacking the ectodomain (Myc TLR4 wt) or its mutant derivative (Myc TLR4 P714H) in the presence or absence of 1.5 μg of Flag-tagged TIRAP (Flag TIRAP) or its mutant derivative containing the P125H mutation (Flag TIRAP PH).”
# as §3
# TIR domain of TLR4 = biological target: T4, TIR domain of TLR4 (Homo sapiens, UniProt O00206); assay: In vitro glutathione S transferase (GST) pull-down assay; assay type: binding
# T4 sequence (O00206 672-815 limits assumed): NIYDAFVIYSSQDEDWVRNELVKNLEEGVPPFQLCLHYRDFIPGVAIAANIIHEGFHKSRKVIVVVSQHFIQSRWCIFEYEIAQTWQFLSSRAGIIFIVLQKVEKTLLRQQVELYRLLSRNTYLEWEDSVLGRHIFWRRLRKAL
# Protocol: Similarly, the interaction between TIRAP and MyD88 was examined. 293T cells were transfected with 1.5 μg of either HA-tagged TIRAP (HA TIRAP) alone or in combination with 1.5 μg of either Flag-tagged MyD88 (Flag MyD88), Flag-tagged TIRAP (Flag-TIRAP), or Flag-tagged TIRAP P125H (Flag TIRAP PH). Immunoprecipitation and analyses of immunocomplexes as well as total cell lysates were done as described above. […] Direct interactions between TIRAP and the TIR domain of TLR4 was also detected using in vitro glutathione S transferase (GST) pull-down assays.
# PKR = assay: Co-immunoprecipitation with HA PKR kinase dead mutant in 293T cells; assay type: binding; details: 293T cell lysates
# Protocol: (§4) (A) Bone marrow-derived macrophages from either wild-type (WT) or MyD88-deficient (MyD88^−/−) mice were stimulated for the indicated time periods (minutes) with either LPS or CpG, and immunoblots were performed using an antibody that specifically recognizes phosphorylated PKR (PKR-P). B and C Cells were transfected with constructs encoding Flag-tagged TIRAP and either a construct encoding an HA-tagged kinase dead mutant of PKR (HA PKR KD) or p58, as indicated. Antibodies used for immunoprecipitation (IP) or immunoblot (IB) are indicated to the left of each blot, and arrows on the right show the location of the indicated proteins.
# To determine whether PKR and TIRAP interact, lysates from 293T cells transfected with either 3.5 μg of an HA PKR kinase dead (KD) mutant […] 1.5 μg of Flag TIRAP were subjected to immunoprecipitation analyses as described above, followed by SDS-PAGE and immunoblotting with the indicated antibodies. The PKR KD mutant rather than wild type PKR was used because overexpressing PKR induces cell death. PKR did, in fact, co-immunoprecipitate with TIRAP (FIG. 4B), further supporting the link between PKR and TIRAP established above.
# p58 = assay: Co-immunoprecipitation with p58 in 293T cells; assay type: binding; details: 293T cell lysates
# Protocol: as §4
# (§5) Because TIRAP may not regulate PKR directly, the interaction between TIRAP and two other proteins, p58 and PACT, was analyzed. p58 is a tetratricopeptide repeat-containing protein that negatively regulates PKR activity (Lee 1994), and PACT is a dsRNA-binding domain-containing protein that activates PKR in response to cellular stress (Patel 19980). Lysates from 293T cells transfected with either p58-encoding vector (3.5 μg) or PACT (3.5 μg) and Flag TIRAP (1.5 μg) were subject to immunoprecipitation analyses followed by SDS-PAGE and immunoblotting with the indicated antibodies.
# PACT = biological target: T5, PACT (Homo sapiens, UniProt O75569); assay: Co-immunoprecipitation with PACT in 293T cells; assay type: binding; details: 293T cell lysates
# T5 construct: expressed in transfected cells; host or cells: 293T cells
# T5 sequence (O75569 1-313): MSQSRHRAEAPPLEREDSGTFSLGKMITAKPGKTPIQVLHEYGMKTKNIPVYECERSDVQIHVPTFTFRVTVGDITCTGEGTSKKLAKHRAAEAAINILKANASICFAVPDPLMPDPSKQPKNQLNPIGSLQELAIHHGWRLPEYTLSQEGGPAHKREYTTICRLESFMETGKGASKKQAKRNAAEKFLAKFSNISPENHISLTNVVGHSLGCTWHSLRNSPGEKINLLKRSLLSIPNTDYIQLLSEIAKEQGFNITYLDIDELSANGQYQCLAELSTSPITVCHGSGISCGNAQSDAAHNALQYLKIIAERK
# Protocol: as §5
# NF-κB promoter = assay: NF-κB-dependent luciferase reporter assay, 293T cells co-transfected with TIRAP constructs; details: 2.0 μg construct, 24 h post-transfection
# Protocol: To determine the effect of various TIRAP constructs on the promoter activity of NF-κB, 293T cells were co-transfected with 2.0 μg of the indicated TIRAP construct and 0.1 μg of an NF-κB-dependent luciferase reporter gene. pcDNA3 is an empty vector control; TIRAP is a vector encoding the full length TIRAP protein; TIRAP N is a vector encoding the N-terminal domain of TIRAP; TIRAP C is a vector encoding the C terminal domain of TIRAP; and TIRAP P125H is a vector encoding a mutant form of TIRAP containing a proline to histidine mutation at amino acid position 125. Cells were harvested 24 h post-transfection and lysed for analysis in a standard luciferase reporter assay. Luciferase activity is expressed as fold induction relative to mock transfected cells (FIG. 2A).
# T2 sequence (Q99836 whole entry, species assumed): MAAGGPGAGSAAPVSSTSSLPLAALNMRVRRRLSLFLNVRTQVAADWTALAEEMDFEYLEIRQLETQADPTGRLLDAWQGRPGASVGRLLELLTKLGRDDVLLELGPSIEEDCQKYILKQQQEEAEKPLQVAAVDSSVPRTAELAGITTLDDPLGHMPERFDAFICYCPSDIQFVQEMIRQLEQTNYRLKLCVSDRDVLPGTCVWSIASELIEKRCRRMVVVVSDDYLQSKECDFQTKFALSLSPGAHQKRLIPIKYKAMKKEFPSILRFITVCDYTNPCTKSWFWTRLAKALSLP
# Chain of IRAK (P51617 whole entry, species assumed): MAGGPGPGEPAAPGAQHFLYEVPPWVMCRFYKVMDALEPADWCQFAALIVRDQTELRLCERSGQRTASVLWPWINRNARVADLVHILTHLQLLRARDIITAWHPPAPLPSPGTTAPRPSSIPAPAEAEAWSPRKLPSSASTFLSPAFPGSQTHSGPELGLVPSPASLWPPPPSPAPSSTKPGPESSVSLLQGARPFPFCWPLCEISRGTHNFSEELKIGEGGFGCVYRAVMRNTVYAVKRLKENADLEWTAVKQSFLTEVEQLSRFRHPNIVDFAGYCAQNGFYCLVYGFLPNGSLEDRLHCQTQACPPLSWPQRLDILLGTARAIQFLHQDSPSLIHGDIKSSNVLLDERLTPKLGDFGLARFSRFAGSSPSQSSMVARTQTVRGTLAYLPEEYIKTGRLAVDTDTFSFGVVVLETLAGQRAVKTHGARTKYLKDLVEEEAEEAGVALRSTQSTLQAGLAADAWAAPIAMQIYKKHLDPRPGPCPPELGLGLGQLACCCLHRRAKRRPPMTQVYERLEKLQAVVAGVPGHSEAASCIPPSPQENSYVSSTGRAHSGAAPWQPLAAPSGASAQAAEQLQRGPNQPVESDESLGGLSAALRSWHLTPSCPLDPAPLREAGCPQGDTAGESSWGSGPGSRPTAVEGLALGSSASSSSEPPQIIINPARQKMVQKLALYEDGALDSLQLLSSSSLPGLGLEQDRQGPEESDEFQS
# T3 sequence (P58753 1-235 isoform P58753-2): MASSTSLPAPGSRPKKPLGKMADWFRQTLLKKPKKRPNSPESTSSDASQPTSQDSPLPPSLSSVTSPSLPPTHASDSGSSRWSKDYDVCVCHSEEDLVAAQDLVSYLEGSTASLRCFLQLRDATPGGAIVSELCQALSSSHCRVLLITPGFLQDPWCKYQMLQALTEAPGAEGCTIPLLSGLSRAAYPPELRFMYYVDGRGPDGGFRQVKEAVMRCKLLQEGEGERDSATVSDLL
substance,measurement,setting,value
TIRAP: vector encoding the full length TIRAP protein (Toll/Interleukin-1 Receptor Adapter Protein),co-immunoprecipitation with TLR4,TLR4,co-immunoprecipitate
same,interaction with MyD88 (co-immunoprecipitation),MyD88,does not interact
same,association with IRAK,IRAK,failed to associate
same,co-immunoprecipitation of TIRAP with itself (homodimerization),TIRAP,can be co-immunoprecipitated with itself
same,direct interaction with the TIR domain of TLR4,TIR domain of TLR4,detected
same,co-immunoprecipitation with PKR,PKR,co-immunoprecipitate
same,co-immunoprecipitation with p58,p58,immunoprecipitate
same,co-immunoprecipitation with PACT,PACT,immunoprecipitate
same,"activation of the NF-κB promoter, luciferase activity as fold induction relative to mock transfected cells",NF-κB promoter,approximately 80 fold induction
